The values that follow come from patent US20110293610A1 (published 2011).

Assay [1] addresses T1, membrane-bound B Lymphocyte Stimulator on U937 plasma membrane preparations (human, UniProt Q9Y275 1-285).
T1 construct: Natural protein in plasma membrane fractions of the human cell line U937 coated on ELISA plates; also called U937 plasma membranes; U937 membranes
The assay is described as follows: phage ELISA. (In general: In an ELISA, binding on a coated surface is turned into a signal by an enzyme label.)

The target of assay [2] is T2, TNF-alpha (human, UniProt P01375 77-233).
T2 construct: also called TNFα; TNF-α
The assay can be described thus: phage ELISA.

The target in assay [3] is T3, TNF-beta (human, UniProt P01374 35-205).
T3 construct: also called TNFβ; Tumour Necrosis Factor-beta
T3 sequence (looked up): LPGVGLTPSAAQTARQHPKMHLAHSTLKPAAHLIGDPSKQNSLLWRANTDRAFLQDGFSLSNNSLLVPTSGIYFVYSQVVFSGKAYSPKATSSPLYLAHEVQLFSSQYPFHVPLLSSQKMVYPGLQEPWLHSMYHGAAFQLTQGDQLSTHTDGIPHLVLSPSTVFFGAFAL
The assay is described as follows: phage ELISA.

Assay [4] deals with T4, Fas ligand (human, UniProt P48023 134-281, limits assumed).
T4 sequence (looked up): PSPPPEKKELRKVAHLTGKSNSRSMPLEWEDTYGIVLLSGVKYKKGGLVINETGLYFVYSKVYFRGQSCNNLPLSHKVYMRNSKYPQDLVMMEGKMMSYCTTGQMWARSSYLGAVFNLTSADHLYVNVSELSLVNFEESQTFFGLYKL
The assay is described as follows: phage ELISA.

For assay [5], the target named is T5, TRAIL (human, UniProt P50591 114-281).
T5 construct: also called TNF-related apoptosis inducing ligand
The assay can be described thus: phage ELISA.

Assay [6] deals with T6, B Lymphocyte Stimulator, soluble form (human) (human, UniProt Q9Y275 134-285, biotinylated with NHS-biotin where used as biotinylated B Lymphocyte Stimulator).
T6 construct: Coated on plastic, captured on streptavidin plates, amine-coupled to a CM5 chip or free in solution, depending on the assay; also called BLyS; immobilized B Lymphocyte Stimulator
The assay can be described thus: phage competition ELISA.

B1: I018C10 (scFv)
scFv: GVQLVQSGPEVKKPGASVKVSCTASGYTFTSYGVSWVRQAPGQGLEWIGWISAHNGQTKYAEKFQGRVTMTRNTSISTAYMELSSLRSEDTVVYYCARDGSYDILTGYYIDNYMDVWGKGTMVTVSSGGGGSGGGGSGGGGSSELTQDPAVSVALGQTVRITCQGDSLRSYYTNWFQQKPGQAPLLVVYAKNKRPSGIPDRFSGSSSGNTASLTITGAQAEDEADYYCHSRDSSGNHVLFGGGTKLTVLG
In the case of B1, the binding result is “binds” in assay [1]; “no binding” in assay [2]; “no binding” in assay [3]; “no binding” in assay [4]; “no binding” in assay [5]; “binds” in assay [6].

B2: I029F11 (scFv)
scFv: QVQLVQSRAEVKRPGASVKVSCKASGYRFGSYGITWVRQAPGQGLEWMGWISTRYGDTKSAQKVEGRVTLTTDTSTSTAYMELRSLRSDDTAVYYCARDGSYDILTGYYIDNYMDVWGRGTLVTVSSGGGGSGGGGSGGGGSQSVLTQPPSASGTPGQRVTISCSGSSSNIGSNTVNWYQRLPGAAPQLLIYNNDQRPSGIPDRFSGSKSGTSGSLVISGLQSEDEADYYCASWDDSLNGRVFGGGTKLTVLG
With B2, the binding result in assay [1] is listed as “binds”; in assay [2] it was “no binding”; in assay [3], “no binding”; in assay [4] it was “no binding”; in assay [5], “no binding”; in assay [6], “binds”.

B3: I061H01 (scFv)
scFv: QVQLVQSGGGLVKPGGSLRLSCAASGFTFSNAWMSWVRQAPGKGLQWVGRIKSKTDGGTTDYAAPVKGRFTISRDDSKNTLYLQMNSLKTEDTAVYYCTTFNPTYDILTGYYIGGYFQHWGQGTMVTVSSGGGGSGGGGSGGGGSQSVLTQPASVSGSPGQSITISCTGTSSDVGGYNYVSWYQQHPGKAPKLMIYEGSKRPSGVSNRFSGSKSGNTASLTISGLQAEDEADYYCSSYTTRSTRVFGGGTQLTVLG
notes: also called 1061H01
Regarding B3, the binding result in assay [1] is reported as “binds”; in assay [2], “no binding”; in assay [3], “no binding”; in assay [4], “no binding”; in assay [5], “no binding”; in assay [6], “binds”.

B4: I022D01 (scFv)
scFv: EVNLRESGGGVDQPGRSLRLSCAASGFTFSSYGMHWVRQAPGKGLEWVAVISYDGSNKYYADSVKGRFTISRDNSKNTLYLQMNSLRAEDTAVYYCAKDGYYDILTGYSYYGMDVWGQGPMVAVSSGGGGSGGGGSGGGGSSELTQDPAVSVALGQTVRITCQGDSLRSYYTNWFQQKPGQAPLLVVYAKNKRPSGIPDRFSGSSSGNTASLTITGAQAEDEADYYCNSRDSSGNHVVFGGGTKLTVLG
Take B4: the binding result was “binds” in assay [1]; “no binding” in assay [2]; “no binding” in assay [3]; “no binding” in assay [4]; “no binding” in assay [5]; “binds” in assay [6].

B5: I016F02 (scFv)
scFv: GVQLVESGAEVKKPGASVKVSCRTSGYTFTSNSFSWVRQAPGQGLEWMGGIIPIFGTANYAQKLQGRVTITADELTRTVYMDLSSLRSEDTAVYYCATGMGDHYGMDVWGRGTLVTVSSGGGGSGGGGSGGGGSQSVLTQPASVSGSPGQSITISCTGTSSDVGGYNYVSWYQQHPGKAPKLMIYEGSKRPSGVSNRFSGSKSGNTASLTISGLQAEDEADYYCSSYTTRSTRVFGGGTKLTVLG
Consider B5, for which the binding result in assay [1] is reported as “binds”; in assay [2], “no binding”; in assay [3], “no binding”; in assay [4], “no binding”; in assay [5], “no binding”; in assay [6], “binds”.

B6: I017D10 (scFv)
scFv: RVQLVQSGAEVKKPGASVKVSCKASGYTFTSDHISWVRQAPGQGLEWMGWISPHHGKTNYAQKLQGRVTMTTDTSTSTAYMELRSLRSDDTAVYYCARVQMDSEYYDLLTGINVGPYYFDYWGKGTLVTVSSGGGGSGGGGSGGGGSSELTQDPAVSVALGQTVRITCQGDSLRSYYASWYQQKPGQAPVLVIYGKNNRPSGIPDRFSGSSSGNTASLTITGAQAEDEADYYCNSRDSSGNHVVFGGGTKLTVLG
Take B6: the binding result in assay [1] was “binds”; in assay [2], “no binding”; in assay [3] it was “no binding”; in assay [4] it was “no binding”; in assay [5], “no binding”; in assay [6], “binds”.

B7: I006D08 (scFv)
scFv: QVQLQQSGAEVKKPGSSVRVSCKASGGTFNNNAINWVRQAPGQGLEWMGGIIPMFGTAKYSQNFQGRVAITADESTSTASMELSSLRSEDTAVYYCARSRDLLLFPHYGMDVWGRGTMVTVSSGGGGSGGGGSGGGGSAFSSELTQDPAVSVALGQTVRVTCQGDSLRSYYASWYQQKPGQAPVLVIYGKNNRPSGIPDRFSGSSSGNTASLTITGAQAEDEADYYCNSRDSSGNHWVFGGGTELTVLG
Turning to B7, the binding result is listed as “binds” in assay [1]; “no binding” in assay [2]; “no binding” in assay [3]; “no binding” in assay [4]; “no binding” in assay [5]; “binds” in assay [6].

B8: I007H08 (scFv)
scFv: QVQLQQSGPGLVKPSQILSLTCAISGDSVASNGAAWNWIRQSPSRGLEWLGRTYYRSKWYVDYAVSVKSRITINPDTSKNQFSLQLNSVTPEDTAVYYCARDRYDILTGYYYYGMDVWGQGTMVTVSSGGGGSGGGGSGGGGSQSALTQPASVSGSRGQSITISCTGTTGDVGGYDYVSWYQQHPGKAPKLLIYGNSNRPSGVPDRFSASKSGNTASLTISGLQAEDEADYFCNTYAPPGIIMFGGGTKLTVLG
B8: the binding result in assay [1] was “binds”; in assay [2], “no binding”; in assay [3], “no binding”; in assay [4] it was “no binding”; in assay [5], “no binding”; in assay [6], “binds”.

B9: I008A11 (scFv)
scFv: QVQLQQSGPGLVKPSQILSLTCAISGDSVASNGAAWNWIRQSPSRGLEWLGRTYYRSKWYVDYAVSVKSRITINPDTSKNQFSLQLNSVTPEDTAVYYCARDRYDILTGYYYYGMDVWGQGTMVTVSSGGGGSGGGGSGGGGSQSALTQPASVSGSRGQSITISCTGTTGDVGGYDYVSWYQQHPGKAPKLLIYGNSNRPSGVPDRFSASKSGNTASLTISGLQAEDEADYFCSTYAPPGIIMFGGGTKLTVLG
As to B9, the binding result in assay [1] is recorded as “binds”; in assay [2], “no binding”; in assay [3], “no binding”; in assay [4] it was “no binding”; in assay [5], “no binding”; in assay [6], “binds”.

B10: I007B03 (scFv)
scFv: GVQLQQSGAEVKKPGSSVKVSCKASGGTFNTSGITWVRQAPGQGLEWMGWMNPNTGDTAYAQEFQGRVIMTRDTSISTAYMELSSLRSEDTAVYYCARDGSYDILTGYYIDNYMDVWGQGTMVTVSSGGGGSGGGGSGGGGSQSVLTQPASVSGSPGQSITISCTGTSSDVGGYNYVSWYQQHPGKAPKLMIYEGSKRPSGVSNRFSGSKSGNTASLTISGLQAEDEADYYCSSYTTRSTRVFGGGTKLTVLG
On to B10, for which the binding result in assay [1] was “binds”; in assay [2] it was “no binding”; in assay [3] it was “no binding”; in assay [4] it was “no binding”; in assay [5] it was “no binding”; in assay [6], “binds”.

B11: I008A09 (scFv)
scFv: GVQLVQSGGGVVQPGGSLRLSCAASGFTFSSYGMHWVRQAPGKGLEWVAVISYDGSNKYYADSVKGRFTISRDNSKNTLYLQMNSLRAEDTAVYYCARDREAYYDILTGYYLYYYYMDVWGRGTTVTVSSGGGGSGGGGSGGGGSQSVLTQPASVSGSPGQSITISCTGTSSDVGGYNYVSWYQQHPGKAPKLMIYEGSKRPSGVSNRFSGSKSGNTASLTISGLQAEDEADYYCSSYTTGSTRVFGGGTKLTVLG
Consider B11, for which the binding result in assay [1] is listed as “binds”; in assay [2], “no binding”; in assay [3] it was “no binding”; in assay [4], “no binding”; in assay [5] it was “no binding”; in assay [6], “binds”.
